Measurements taken from patent publication US20110300579A1 (UNIVERSITY OF SOUTHERN CALIFORNIA, published 2011).

What was measured:
[1] = molecular target: purified soluble αvβ3 integrin (Millipore) (UniProt P06756 31-992; P05106 27-718)
[2] = molecular target: soluble recombinant α5β1 integrin (R&D Systems) (UniProt P08648 42-995; P05556 21-728)
[3] = molecular target: purified soluble αvβ5 integrin (Millipore) (UniProt P06756 31-992; P18084 24-719)
purified soluble αvβ5 integrin (Millipore), sequence (P06756 31-992, chain 1 of 2): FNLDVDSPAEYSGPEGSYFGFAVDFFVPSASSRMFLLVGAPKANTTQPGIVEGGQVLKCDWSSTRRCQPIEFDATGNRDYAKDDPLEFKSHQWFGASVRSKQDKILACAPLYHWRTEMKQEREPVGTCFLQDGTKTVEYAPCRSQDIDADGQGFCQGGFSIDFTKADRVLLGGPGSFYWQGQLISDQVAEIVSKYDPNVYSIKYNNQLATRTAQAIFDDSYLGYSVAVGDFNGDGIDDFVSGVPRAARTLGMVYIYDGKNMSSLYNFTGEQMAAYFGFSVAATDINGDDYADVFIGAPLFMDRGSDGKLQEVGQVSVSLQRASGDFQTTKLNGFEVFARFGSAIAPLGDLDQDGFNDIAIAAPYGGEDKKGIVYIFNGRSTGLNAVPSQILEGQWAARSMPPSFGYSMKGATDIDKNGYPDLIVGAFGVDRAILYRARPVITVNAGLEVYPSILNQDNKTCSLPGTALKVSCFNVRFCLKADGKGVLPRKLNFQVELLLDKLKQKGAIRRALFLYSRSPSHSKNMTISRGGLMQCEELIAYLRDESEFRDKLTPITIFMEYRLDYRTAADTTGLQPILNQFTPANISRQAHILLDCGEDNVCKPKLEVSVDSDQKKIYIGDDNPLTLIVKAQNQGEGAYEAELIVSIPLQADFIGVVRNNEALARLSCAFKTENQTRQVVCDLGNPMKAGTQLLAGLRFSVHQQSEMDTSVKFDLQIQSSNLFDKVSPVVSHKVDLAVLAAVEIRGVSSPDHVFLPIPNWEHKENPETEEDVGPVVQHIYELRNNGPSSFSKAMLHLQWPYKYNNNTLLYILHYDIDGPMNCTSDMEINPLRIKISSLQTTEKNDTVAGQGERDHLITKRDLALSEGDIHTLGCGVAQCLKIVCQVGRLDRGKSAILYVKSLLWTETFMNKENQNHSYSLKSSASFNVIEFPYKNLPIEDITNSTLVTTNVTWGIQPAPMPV
purified soluble αvβ5 integrin (Millipore), sequence (P18084 24-719, chain 2 of 2): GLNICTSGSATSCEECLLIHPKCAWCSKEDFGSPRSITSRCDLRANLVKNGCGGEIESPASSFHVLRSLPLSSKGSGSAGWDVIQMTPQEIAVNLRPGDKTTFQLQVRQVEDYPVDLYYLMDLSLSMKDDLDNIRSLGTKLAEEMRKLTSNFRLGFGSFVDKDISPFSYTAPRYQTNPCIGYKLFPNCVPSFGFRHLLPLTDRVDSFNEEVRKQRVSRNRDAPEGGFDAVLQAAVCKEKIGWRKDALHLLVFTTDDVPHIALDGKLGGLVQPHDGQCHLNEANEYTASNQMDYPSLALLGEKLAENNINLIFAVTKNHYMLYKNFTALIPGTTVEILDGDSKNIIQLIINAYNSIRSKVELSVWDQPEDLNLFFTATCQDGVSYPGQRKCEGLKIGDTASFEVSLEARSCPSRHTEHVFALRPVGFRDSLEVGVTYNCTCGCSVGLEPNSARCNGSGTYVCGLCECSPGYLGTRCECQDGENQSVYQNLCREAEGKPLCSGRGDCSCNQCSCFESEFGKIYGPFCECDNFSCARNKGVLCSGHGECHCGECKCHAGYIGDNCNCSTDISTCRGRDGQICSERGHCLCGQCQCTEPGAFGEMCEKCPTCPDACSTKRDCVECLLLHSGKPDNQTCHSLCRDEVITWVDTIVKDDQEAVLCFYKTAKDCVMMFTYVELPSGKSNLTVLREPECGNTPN

soluble recombinant α5β1 integrin (R&D Systems), sequence (P08648 42-995, chain 1 of 2): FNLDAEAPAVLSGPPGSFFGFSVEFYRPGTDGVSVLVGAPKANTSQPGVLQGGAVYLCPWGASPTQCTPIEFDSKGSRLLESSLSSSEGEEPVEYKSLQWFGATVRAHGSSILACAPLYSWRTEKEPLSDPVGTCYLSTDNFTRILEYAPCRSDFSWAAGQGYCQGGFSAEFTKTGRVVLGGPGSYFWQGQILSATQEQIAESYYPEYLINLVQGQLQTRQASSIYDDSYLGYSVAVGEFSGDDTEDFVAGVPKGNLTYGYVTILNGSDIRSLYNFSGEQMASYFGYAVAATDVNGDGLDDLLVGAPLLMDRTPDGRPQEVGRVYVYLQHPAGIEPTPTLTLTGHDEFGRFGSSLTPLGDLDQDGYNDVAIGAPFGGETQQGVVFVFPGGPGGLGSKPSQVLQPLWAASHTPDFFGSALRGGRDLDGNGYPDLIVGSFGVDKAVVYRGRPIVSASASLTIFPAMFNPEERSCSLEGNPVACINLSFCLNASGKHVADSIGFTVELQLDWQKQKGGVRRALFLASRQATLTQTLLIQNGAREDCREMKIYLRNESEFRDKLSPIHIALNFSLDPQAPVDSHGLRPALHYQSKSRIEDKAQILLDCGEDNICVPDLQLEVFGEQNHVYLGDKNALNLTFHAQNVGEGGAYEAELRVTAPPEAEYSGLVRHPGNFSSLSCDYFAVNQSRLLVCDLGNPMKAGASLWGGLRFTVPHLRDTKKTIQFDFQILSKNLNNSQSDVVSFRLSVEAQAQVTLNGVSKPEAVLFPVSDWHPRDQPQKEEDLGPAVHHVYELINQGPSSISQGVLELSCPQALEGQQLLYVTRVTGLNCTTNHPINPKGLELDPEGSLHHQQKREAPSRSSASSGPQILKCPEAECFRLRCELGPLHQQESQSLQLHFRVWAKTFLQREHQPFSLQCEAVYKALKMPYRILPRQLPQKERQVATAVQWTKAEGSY
soluble recombinant α5β1 integrin (R&D Systems), sequence (P05556 21-728, chain 2 of 2): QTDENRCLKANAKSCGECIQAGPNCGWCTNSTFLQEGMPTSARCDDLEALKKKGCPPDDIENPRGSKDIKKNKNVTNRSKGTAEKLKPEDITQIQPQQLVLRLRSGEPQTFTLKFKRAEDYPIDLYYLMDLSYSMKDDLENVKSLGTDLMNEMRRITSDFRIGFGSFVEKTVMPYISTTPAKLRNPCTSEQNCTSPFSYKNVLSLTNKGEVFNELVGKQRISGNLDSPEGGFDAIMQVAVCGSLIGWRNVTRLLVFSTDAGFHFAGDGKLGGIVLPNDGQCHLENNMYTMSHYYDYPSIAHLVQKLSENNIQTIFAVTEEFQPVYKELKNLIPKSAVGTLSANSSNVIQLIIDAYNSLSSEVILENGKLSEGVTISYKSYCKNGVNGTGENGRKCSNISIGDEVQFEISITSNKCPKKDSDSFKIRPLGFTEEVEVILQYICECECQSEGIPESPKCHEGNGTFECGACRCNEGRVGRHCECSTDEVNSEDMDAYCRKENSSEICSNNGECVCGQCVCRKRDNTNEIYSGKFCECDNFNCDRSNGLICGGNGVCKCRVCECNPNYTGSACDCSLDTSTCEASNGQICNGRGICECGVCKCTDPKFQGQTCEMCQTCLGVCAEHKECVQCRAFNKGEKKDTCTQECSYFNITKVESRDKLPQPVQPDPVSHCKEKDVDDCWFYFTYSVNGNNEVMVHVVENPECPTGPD
purified soluble αvβ3 integrin (Millipore), sequence (P06756 31-992, chain 1 of 2): as the sequence (P06756 31-992, chain 1 of 2) above
purified soluble αvβ3 integrin (Millipore), sequence (P05106 27-718, chain 2 of 2): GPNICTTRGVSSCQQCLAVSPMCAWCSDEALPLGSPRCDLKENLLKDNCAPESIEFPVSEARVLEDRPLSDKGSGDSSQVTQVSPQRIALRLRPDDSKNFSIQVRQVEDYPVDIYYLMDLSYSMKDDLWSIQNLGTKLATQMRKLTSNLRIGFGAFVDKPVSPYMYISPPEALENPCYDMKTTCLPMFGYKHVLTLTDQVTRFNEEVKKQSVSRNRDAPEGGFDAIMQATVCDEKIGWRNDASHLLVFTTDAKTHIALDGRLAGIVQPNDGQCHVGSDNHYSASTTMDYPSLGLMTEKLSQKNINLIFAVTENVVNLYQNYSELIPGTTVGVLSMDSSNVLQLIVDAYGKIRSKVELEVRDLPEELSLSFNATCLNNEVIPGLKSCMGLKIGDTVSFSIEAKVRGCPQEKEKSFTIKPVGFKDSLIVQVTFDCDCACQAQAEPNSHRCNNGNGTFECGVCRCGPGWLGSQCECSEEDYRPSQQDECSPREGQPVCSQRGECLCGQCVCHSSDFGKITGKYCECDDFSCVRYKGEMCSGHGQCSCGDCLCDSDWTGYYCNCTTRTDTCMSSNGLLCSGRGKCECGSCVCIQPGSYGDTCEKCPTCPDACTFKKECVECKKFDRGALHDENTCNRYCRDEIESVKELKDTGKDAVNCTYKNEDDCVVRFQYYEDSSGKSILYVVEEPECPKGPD

B1: Contortrostatin (CN), native, purified from Agkistrodon contortrix contortrix venom (ligand)
chain: DAPANPCCDAATCKLTTGSQCADGLCCDQCKFMKEGTVCRRARGDDLDDYCNGISAGCPRNPFH
Kd [1]: 6.6 nM | Kd [2]: 191 nM | Kd [3]: 19.5 nM
